Measured values taken from paper PMC8385704.
pEC50: −log10 of the molar value.

target: ACE2-Fc fusion protein (extracellular domain of human ACE2 and the Fc region of human IgG1) (human) (UniProt Q9BYF1); assay: ELISA
Sequence (Q9BYF1 18-740): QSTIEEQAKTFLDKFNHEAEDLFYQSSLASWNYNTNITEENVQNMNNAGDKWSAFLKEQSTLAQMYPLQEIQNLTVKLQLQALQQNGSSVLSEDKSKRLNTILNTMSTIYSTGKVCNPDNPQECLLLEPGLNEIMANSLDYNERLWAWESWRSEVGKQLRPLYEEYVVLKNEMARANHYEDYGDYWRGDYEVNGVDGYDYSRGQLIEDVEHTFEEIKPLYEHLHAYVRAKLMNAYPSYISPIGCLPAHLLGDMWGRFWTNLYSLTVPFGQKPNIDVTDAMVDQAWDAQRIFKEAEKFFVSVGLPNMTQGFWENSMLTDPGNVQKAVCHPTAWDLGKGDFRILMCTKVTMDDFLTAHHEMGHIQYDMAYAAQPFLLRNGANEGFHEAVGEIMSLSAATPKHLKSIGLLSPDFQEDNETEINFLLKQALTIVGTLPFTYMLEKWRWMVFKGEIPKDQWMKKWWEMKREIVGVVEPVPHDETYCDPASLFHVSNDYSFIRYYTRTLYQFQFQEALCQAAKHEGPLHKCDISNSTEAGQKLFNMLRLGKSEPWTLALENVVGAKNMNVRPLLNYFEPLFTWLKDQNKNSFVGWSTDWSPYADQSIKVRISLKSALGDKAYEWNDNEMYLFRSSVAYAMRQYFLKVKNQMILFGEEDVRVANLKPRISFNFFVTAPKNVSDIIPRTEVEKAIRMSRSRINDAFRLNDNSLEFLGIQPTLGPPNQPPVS

Sequence of recombinant S1-subunit or RBD of HCoV-NL63 (domain or fragment) (Q6Q1S2 19-717 limits assumed): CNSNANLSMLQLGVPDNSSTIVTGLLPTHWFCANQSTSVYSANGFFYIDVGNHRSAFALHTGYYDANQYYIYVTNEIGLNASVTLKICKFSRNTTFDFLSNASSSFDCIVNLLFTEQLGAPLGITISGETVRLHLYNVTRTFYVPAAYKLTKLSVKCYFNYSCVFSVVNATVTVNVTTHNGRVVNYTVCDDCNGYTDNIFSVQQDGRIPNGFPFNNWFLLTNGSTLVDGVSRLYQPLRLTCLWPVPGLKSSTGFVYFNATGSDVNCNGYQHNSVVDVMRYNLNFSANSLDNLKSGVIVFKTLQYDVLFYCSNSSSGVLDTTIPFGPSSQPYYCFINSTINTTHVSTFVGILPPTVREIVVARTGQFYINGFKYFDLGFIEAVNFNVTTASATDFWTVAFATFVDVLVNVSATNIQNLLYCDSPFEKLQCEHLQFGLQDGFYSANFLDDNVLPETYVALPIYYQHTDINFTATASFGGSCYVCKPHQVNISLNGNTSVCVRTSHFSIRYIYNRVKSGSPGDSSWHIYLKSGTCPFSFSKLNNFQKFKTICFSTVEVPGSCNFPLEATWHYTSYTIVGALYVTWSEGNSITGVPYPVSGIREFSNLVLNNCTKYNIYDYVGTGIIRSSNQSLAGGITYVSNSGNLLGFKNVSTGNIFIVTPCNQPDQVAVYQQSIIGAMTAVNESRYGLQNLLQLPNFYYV

In order of falling pEC50:
1. recombinant S1-subunit or RBD of SARS-CoV (domain or fragment)  8.96
2. recombinant S1-subunit or RBD of SARS-CoV-2 (domain or fragment)  7.93
3. recombinant S1-subunit or RBD of HCoV-NL63 (domain or fragment)  7.62
